Data: patent publication US7132274B2, “Method for identifying modulators of CLK-1 and UbiF activity” (priority 2003, dated 2006)

Test system: E. coli JF496 (ubiF411)
Experiment: JF496 complementation (growth rescue) assay
Format: cell-based
Conditions: for rescue of bacterial growth under selective condition: compared with vector pET16 control; for Activity in JF496 system: C. elegans CLK-1 variants expressed in JF496, growth rate relative to wild type CLK-1
Source text: JF496 is useful for complementation assays using eukaryotic clk-1. As with all other ubi mutants, JF496 has a weak growth in liquid culture, and cannot use succinate as a unique carbon source. These characteristics were used to develop a gain-of-function assay, where JF496 was transformed with a eukaryotic clk-1 (here from C. elegans) and then wild-type growth was identified. Transgenic E. coli ubiF (Kwon et al., 2000 FEMS Microbiol Lett, 186, 157–161), and clk-1 from proteobacteria (Stenmark et al., 2001 J Biol Chem, 276, 33297–33300) have been tested in JF496.
Growth conditions—For complementation assays, plasmids are freshly transformed by electroporation into E. coli JF496 ubiF(DE3) and grown overnight at 37° C. in 5 mL LB with 50 μg/mL ampicillin. The cultures are diluted 1/10 and OD600 measured. A bacterial volume corresponding to an OD600 of 0.03 in 5 mL is taken, centrifuged and resuspended in 100 μl of M9 medium. It is then added into 5 mL M9 containing 1 mM MgSO4, 20 μM CaCl2, 0.5 μg/mL thiamine, 0.12% casamino acids, 40 μg/mL D-L-methionine, 100 μg/mL L-asparagine, trace metals and 50 μg/mL ampicillin. This medium is supplemented with 0.5% glucose or 0.5% succinate. E. coli JF496 is grown at 37° C. for 8 hours. Samples (700-μL) are taken at 2-hour intervals and the OD600 is measured in order to determine the growth rate.
Growth conditions—as described above in Section 6.1
A selection of CLK-1 variants were constructed by site-directed mutagenesis and cloned into the JF496 system to assess their enzymatic activity relative to the wild type. The respective strains of JF496-clk-1 variants were cultured as described and the growth rate of each were measured. The results as shown in Table 4 indicate that certain residues and regions are not tolerant of amino acid substitution (amino acid substitution is indicated by one-letter codes).

[1] = JF496, M9 buffer containing 0.5% glucose

B1: mclk-1: mouse clk-1 cDNA expressed in JF496 (protein, listed as Mus musculus)
chain: MSAAGAIAAASVGRLRTGVRRPFSEYGRGLIIRCHSSGMTLDNINRAAVDRIIRVDHAGEYGANRIYAGQMAVLGRTSVGPVIQKMWDQEKNHLKKFNELMIAFRVRPTVLMPLWNVAGFALGAGTALLGKEGAMACTVAVEESIANHYNNQIRMLMEEDPEKYEELLQVIKQFRDEELEHHDTGLDHDAELAPAYALLKRIIQAGCSAAIYLSERF
modifications: Mouse CLK-1
notes: mouse clk-1 cDNA expressed in JF496
With B1 the “rescue of bacterial growth under selective condition” value (from here on “rescue … under selective condition”) [1] was “rescues bacterial growth”.

B2: E. coli UbiF: E. coli UbiF expressed from a plasmid in JF496 (protein)
chain: MTNQPTEIAIVGGGMVGGALALGLAQHGFAVTVIEHAEPAPFVADSQPDVRISAISAASVSLLKGLGVWDAVQAMRCHPYRRLETWEWETAHVVFDAAELKLPLLGYMVENTVLQQALWQALEAHPKVTLRVPGSLIALHRHDDLQELELKGGEVIRAKLVIGADGANSQVRQMAGIGVHAWQYAQSCMLISVQCENDPGDSTWQQFTPDGPRAFLPLFDNWASLVWYDSPARIRQLQNMNMAQLQAEIAKHFPSRLGYVTPLAAGAFPLTRRHALQYVQPGLALVGDAAHTIHPLAGQGVNLGYRDVDALIDVLVNARSYGEAWASYPVLKRYQMRRMADNFIMQSGMDLFYAGFSNNLPPLRFMRNLGLMAAERAGVLKRQALKYALGL
modifications: E. coli; ubiF wildtype allele
notes: E. coli UbiF expressed from a plasmid in JF496
For B2, the “rescue … under selective condition” value [1] was “rescued bacterial growth”.

B3: hclk-1: human clk-1 cDNA expressed in JF496 (protein, listed as Homo sapiens)
chain: MSCAGAAAAPRLWRLRPGARRSLSAYGRRTSVRFRSSGMTLDNISRAAVDRIIRVDHAGEYGANRIYAGQMAVLGRTSVGPVIQKMWDQEKDHLKKFNELMVTFRVRPTVLMPLWNVLGFALGAGTALLGKEGAMACTVAVEESIAHHYNNQIRTLMEEDPEKYEELLQLIKKFRDEELEHHDIGLDHDAELAPAYAVLKSIIQAGCRVAIYLSERL
modifications: Human CLK-1
notes: human clk-1 cDNA expressed in JF496
With B3 the rescuing capacity [1] was “lower than that of mclk-1 or C. elegans clk-1” and the “rescue … under selective condition” value [1] was “rescues bacterial growth”.

B4: CDB 717: C. elegans CLK-1 variant, mutation Y119A (protein, UniProt P48376 9-187, looked up, variant Y119A)
NADPH-dependent …: AHTAASRQALIEKIIRVDHAGELGADRIYAGQLAVLQGSSVGSVIKKMWDEEKEHLDTMERLAAKHNVPHTVFSPVFSVAAYALGVGSALLGKEGAMACTIAVEELIGQHANDQLKELLADDPETHKELLKILTRLRDEELHHHDTGVEHDGMKAPAYSALKWIIQTGCKGAIAIAEKI
In the case of B4, the “Activity in JF496 system” value is reported as “Inactive”.

B5: CDB 709: C. elegans CLK-1 variant, mutation Q174A (protein, UniProt P48376 9-187, looked up, variant Q174A)
NADPH-dependent …: AHTAASRQALIEKIIRVDHAGELGADRIYAGQLAVLQGSSVGSVIKKMWDEEKEHLDTMERLAAKHNVPHTVFSPVFSVAAYALGVGSALLGKEGAMACTIAVEELIGQHYNDQLKELLADDPETHKELLKILTRLRDEELHHHDTGVEHDGMKAPAYSALKWIIATGCKGAIAIAEKI
B5 was tested, and the “Activity in JF496 system” value was “Active”.

B6: CDB 715: C. elegans CLK-1 variant, mutation H151A (protein, UniProt P48376 9-187, looked up, variant H151A)
NADPH-dependent …: AHTAASRQALIEKIIRVDHAGELGADRIYAGQLAVLQGSSVGSVIKKMWDEEKEHLDTMERLAAKHNVPHTVFSPVFSVAAYALGVGSALLGKEGAMACTIAVEELIGQHYNDQLKELLADDPETHKELLKILTRLRDEELHAHDTGVEHDGMKAPAYSALKWIIQTGCKGAIAIAEKI
In the case of B6, the “Activity in JF496 system” value is reported as “Inactive”.

B7: CDB 698: C. elegans CLK-1 variant, mutation I115H (protein, UniProt P48376 9-187, looked up, variant I115H)
NADPH-dependent …: AHTAASRQALIEKIIRVDHAGELGADRIYAGQLAVLQGSSVGSVIKKMWDEEKEHLDTMERLAAKHNVPHTVFSPVFSVAAYALGVGSALLGKEGAMACTIAVEELHGQHYNDQLKELLADDPETHKELLKILTRLRDEELHHHDTGVEHDGMKAPAYSALKWIIQTGCKGAIAIAEKI
In the case of B7, the “Activity in JF496 system” value is reported as “Inactive”.

B8: CDB 699: C. elegans CLK-1 variant, mutation E148A (protein, UniProt P48376 9-187, looked up, variant E148A)
NADPH-dependent …: AHTAASRQALIEKIIRVDHAGELGADRIYAGQLAVLQGSSVGSVIKKMWDEEKEHLDTMERLAAKHNVPHTVFSPVFSVAAYALGVGSALLGKEGAMACTIAVEELIGQHYNDQLKELLADDPETHKELLKILTRLRDEALHHHDTGVEHDGMKAPAYSALKWIIQTGCKGAIAIAEKI
In the case of B8, the “Activity in JF496 system” value is reported as “Inactive”.

B9: CDB 694: C. elegans CLK-1 variant, mutation E148K (protein, UniProt P48376 9-187, looked up, variant E148K)
NADPH-dependent …: AHTAASRQALIEKIIRVDHAGELGADRIYAGQLAVLQGSSVGSVIKKMWDEEKEHLDTMERLAAKHNVPHTVFSPVFSVAAYALGVGSALLGKEGAMACTIAVEELIGQHYNDQLKELLADDPETHKELLKILTRLRDEKLHHHDTGVEHDGMKAPAYSALKWIIQTGCKGAIAIAEKI
With B9 the “Activity in JF496 system” value was “Inactive”.

B10: CDB 711: C. elegans CLK-1 variant, mutation S51P (protein, UniProt P48376 9-187, looked up, variant S51P)
NADPH-dependent …: AHTAASRQALIEKIIRVDHAGELGADRIYAGQLAVLQGSSVGPVIKKMWDEEKEHLDTMERLAAKHNVPHTVFSPVFSVAAYALGVGSALLGKEGAMACTIAVEELIGQHYNDQLKELLADDPETHKELLKILTRLRDEELHHHDTGVEHDGMKAPAYSALKWIIQTGCKGAIAIAEKI
In the case of B10, the “Activity in JF496 system” value is reported as “Active”.

B11: CDB 691: C. elegans CLK-1 variant, mutation E147K (protein, UniProt P48376 9-187, looked up, variant E147K)
NADPH-dependent …: AHTAASRQALIEKIIRVDHAGELGADRIYAGQLAVLQGSSVGSVIKKMWDEEKEHLDTMERLAAKHNVPHTVFSPVFSVAAYALGVGSALLGKEGAMACTIAVEELIGQHYNDQLKELLADDPETHKELLKILTRLRDKELHHHDTGVEHDGMKAPAYSALKWIIQTGCKGAIAIAEKI
In the case of B11, the “Activity in JF496 system” value is reported as “Active”.

B12: CDB 707: C. elegans CLK-1 variant, mutation E147A (protein, UniProt P48376 9-187, looked up, variant E147A)
NADPH-dependent …: AHTAASRQALIEKIIRVDHAGELGADRIYAGQLAVLQGSSVGSVIKKMWDEEKEHLDTMERLAAKHNVPHTVFSPVFSVAAYALGVGSALLGKEGAMACTIAVEELIGQHYNDQLKELLADDPETHKELLKILTRLRDAELHHHDTGVEHDGMKAPAYSALKWIIQTGCKGAIAIAEKI
In the case of B12, the “Activity in JF496 system” value is reported as “Active”.

B13: C. elegans clk-1: wild-type C. elegans CLK-1 (DMQ hydroxylase) expressed from pET16 in JF496 (protein)
chain: MFRVITRGAHTAASRQALIEKIIRVDHAGELGADRIYAGQLAVLQGSSVGSVIKKMWDEEKEHLDTMERLAAKHNVPHTVFSPVFSVAAYALGVGSALLGKEGAMACTIAVEELIGQHYNDQLKELLADDPETHKELLKILTRLRDEELHHHDTGVEHDGMKAPAYSALKWIIQTGCKGAIAIAEKI
modifications: C. elegans; C. elegans CLK-1
notes: wild-type C. elegans CLK-1 (DMQ hydroxylase) expressed from pET16 in JF496
B13 was tested, and the “rescue of JF496 growth defect” value (FIG. 6, JF496 transformed with C. elegans clk-1) was “able to rescue the JF496 growth defect”.
